{"source": "patent US20240117334A1", "about": "“FACTOR B PROTEASES” (Vertex Pharmaceuticals Incorporated, priority 2021, published 2024)", "data": [{"molecular_target": "Human Factor B (human) (UniProt P00751)", "sequence (P00751 26-764 limits assumed)": "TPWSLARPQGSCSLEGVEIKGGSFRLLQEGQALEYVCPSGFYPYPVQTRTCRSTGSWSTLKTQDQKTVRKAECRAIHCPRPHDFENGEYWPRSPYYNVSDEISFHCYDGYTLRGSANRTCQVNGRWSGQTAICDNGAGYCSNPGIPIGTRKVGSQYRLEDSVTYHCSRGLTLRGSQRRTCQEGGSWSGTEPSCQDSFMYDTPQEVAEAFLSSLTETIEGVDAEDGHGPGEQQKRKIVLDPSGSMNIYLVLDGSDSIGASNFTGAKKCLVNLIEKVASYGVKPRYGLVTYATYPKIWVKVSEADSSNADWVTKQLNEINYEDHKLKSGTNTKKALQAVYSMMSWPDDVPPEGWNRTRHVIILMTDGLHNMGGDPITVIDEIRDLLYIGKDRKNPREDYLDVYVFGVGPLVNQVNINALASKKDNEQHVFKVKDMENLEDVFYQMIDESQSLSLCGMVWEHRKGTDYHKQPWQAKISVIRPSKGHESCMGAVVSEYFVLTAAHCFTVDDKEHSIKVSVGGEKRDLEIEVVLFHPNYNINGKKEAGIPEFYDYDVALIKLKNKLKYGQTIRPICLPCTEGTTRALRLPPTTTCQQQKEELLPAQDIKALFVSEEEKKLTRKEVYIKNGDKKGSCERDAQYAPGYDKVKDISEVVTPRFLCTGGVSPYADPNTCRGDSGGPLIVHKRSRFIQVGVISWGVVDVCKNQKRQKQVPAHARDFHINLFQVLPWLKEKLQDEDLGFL", "test": "cell-based or functional assay", "units": {"fB Cleavage EC50": "µM", "fB Cleavage, 80% plasma EC50": "µM", "EC50 (Factor B ELISA after digestion)": "µM"}, "values": [{"binder": "chymase C22S/K40M/F41K/F173Y/D175R/S218E/A226R (enzyme) IIGGTESKPHSRPYMAYLEIVTSNGPSMKCGGFLIRRNFVLTAAHCAGRSITVTLGAHNITEEEDTWQKLEVIKQFRHPKYNTSTLHHDIMLLKLKEKASLTLAVGTLPFPSQFNFVPPGRMCRVAGWGRTGVLKPGSDTLQEVKLRLMDPQACSHYRRFDHNLQLCVGNPRKTKSAFKGDSGGPLLCAGVAQGIVSYGREDAKPPRVFTRISHYRPWINQILQAN", "fB Cleavage EC50": 0.203, "fB Cleavage, 80% plasma EC50": 4.13}, {"binder": "chymase C22S/K40L/F41K/L99Q/F173Y/D175N/S218V/A226R (enzyme) IIGGTESKPHSRPYMAYLEIVTSNGPSLKCGGFLIRRNFVLTAAHCAGRSITVTLGAHNITEEEDTWQKLEVIKQFRHPKYNTSTQHHDIMLLKLKEKASLTLAVGTLPFPSQFNFVPPGRMCRVAGWGRTGVLKPGSDTLQEVKLRLMDPQACSHYRNFDHNLQLCVGNPRKTKSAFKGDSGGPLLCAGVAQGIVSYGRVDAKPPRVFTRISHYRPWINQILQAN", "fB Cleavage EC50": 0.11, "fB Cleavage, 80% plasma EC50": 5.67}, {"binder": "chymase C22S/P38Q/K40L/F41R/L99N/V138I/F173Y/D175N/A190S/V213A/S218V/A226R (enzyme) IIGGTESKPHSRPYMAYLEIVTSNGQSLRCGGFLIRRNFVLTAAHCAGRSITVTLGAHNITEEEDTWQKLEVIKQFRHPKYNTSTNHHDIMLLKLKEKASLTLAVGTLPFPSQFNFVPPGRMCRIAGWGRTGVLKPGSDTLQEVKLRLMDPQACSHYRNFDHNLQLCVGNPRKTKSSFKGDSGGPLLCAGVAQGIASYGRVDAKPPRVFTRISHYRPWINQILQAN", "fB Cleavage EC50": 0.0653}, {"binder": "chymase C22S/K40M/F41R/L99Q/F173Y/D175R/S218I/A226R (enzyme) IIGGTESKPHSRPYMAYLEIVTSNGPSMRCGGFLIRRNFVLTAAHCAGRSITVTLGAHNITEEEDTWQKLEVIKQFRHPKYNTSTQHHDIMLLKLKEKASLTLAVGTLPFPSQFNFVPPGRMCRVAGWGRTGVLKPGSDTLQEVKLRLMDPQACSHYRRFDHNLQLCVGNPRKTKSAFKGDSGGPLLCAGVAQGIVSYGRIDAKPPRVFTRISHYRPWINQILQAN", "fB Cleavage EC50": 0.213, "fB Cleavage, 80% plasma EC50": 4.48}, {"binder": "chymase C22S/P38Q/K40A/F41K/L99H/V138I/D175S/A190S/V213A/S218V/A226R (enzyme) IIGGTESKPHSRPYMAYLEIVTSNGQSAKCGGFLIRRNFVLTAAHCAGRSITVTLGAHNITEEEDTWQKLEVIKQFRHPKYNTSTHHHDIMLLKLKEKASLTLAVGTLPFPSQFNFVPPGRMCRIAGWGRTGVLKPGSDTLQEVKLRLMDPQACSHFRSFDHNLQLCVGNPRKTKSSFKGDSGGPLLCAGVAQGIASYGRVDAKPPRVFTRISHYRPWINQILQAN", "fB Cleavage EC50": 0.142}, {"binder": "chymase C22S/P38Q/V213Q/A226R/F228A (enzyme) IIGGTESKPHSRPYMAYLEIVTSNGQSKFCGGFLIRRNFVLTAAHCAGRSITVTLGAHNITEEEDTWQKLEVIKQFRHPKYNTSTLHHDIMLLKLKEKASLTLAVGTLPFPSQFNFVPPGRMCRVAGWGRTGVLKPGSDTLQEVKLRLMDPQACSHFRDFDHNLQLCVGNPRKTKSAFKGDSGGPLLCAGVAQGIQSYGRSDAKPPRVATRISHYRPWINQILQAN", "fB Cleavage EC50": 6.21}, {"binder": "chymase C22S/P38Q/K40A/F41R/L99H/F173Y/D175Y/V213Q/S218V/A226R/F228A (enzyme) IIGGTESKPHSRPYMAYLEIVTSNGQSARCGGFLIRRNFVLTAAHCAGRSITVTLGAHNITEEEDTWQKLEVIKQFRHPKYNTSTHHHDIMLLKLKEKASLTLAVGTLPFPSQFNFVPPGRMCRVAGWGRTGVLKPGSDTLQEVKLRLMDPQACSHYRYFDHNLQLCVGNPRKTKSAFKGDSGGPLLCAGVAQGIQSYGRVDAKPPRVATRISHYRPWINQILQAN", "fB Cleavage EC50": 0.769}, {"binder": "chymase C22S/P38Q/K40A/F41R/L99H/V138I/F173Y/D175N/A190S/V213A/S218V/A226R (enzyme) IIGGTESKPHSRPYMAYLEIVTSNGQSARCGGFLIRRNFVLTAAHCAGRSITVTLGAHNITEEEDTWQKLEVIKQFRHPKYNTSTHHHDIMLLKLKEKASLTLAVGTLPFPSQFNFVPPGRMCRIAGWGRTGVLKPGSDTLQEVKLRLMDPQACSHYRNFDHNLQLCVGNPRKTKSSFKGDSGGPLLCAGVAQGIASYGRVDAKPPRVFTRISHYRPWINQILQAN", "fB Cleavage EC50": 0.0718}, {"binder": "chymase C22S/K40M/F41R/L99Q/F173Y/D175R/S218V/A226R (enzyme) IIGGTESKPHSRPYMAYLEIVTSNGPSMRCGGFLIRRNFVLTAAHCAGRSITVTLGAHNITEEEDTWQKLEVIKQFRHPKYNTSTQHHDIMLLKLKEKASLTLAVGTLPFPSQFNFVPPGRMCRVAGWGRTGVLKPGSDTLQEVKLRLMDPQACSHYRRFDHNLQLCVGNPRKTKSAFKGDSGGPLLCAGVAQGIVSYGRVDAKPPRVFTRISHYRPWINQILQAN", "fB Cleavage EC50": 0.235, "fB Cleavage, 80% plasma EC50": 4.07}, {"binder": "chymase C22S/P38Q/K40A/F41R/L99H/D175N/V213Q/S218I/A226R/F228A (enzyme) IIGGTESKPHSRPYMAYLEIVTSNGQSARCGGFLIRRNFVLTAAHCAGRSITVTLGAHNITEEEDTWQKLEVIKQFRHPKYNTSTHHHDIMLLKLKEKASLTLAVGTLPFPSQFNFVPPGRMCRVAGWGRTGVLKPGSDTLQEVKLRLMDPQACSHFRNFDHNLQLCVGNPRKTKSAFKGDSGGPLLCAGVAQGIQSYGRIDAKPPRVATRISHYRPWINQILQAN", "fB Cleavage EC50": 0.553}, {"binder": "chymase C22S/K40M/F41K/L99N/F173Y/D175R/S218T/A226R (enzyme) IIGGTESKPHSRPYMAYLEIVTSNGPSMKCGGFLIRRNFVLTAAHCAGRSITVTLGAHNITEEEDTWQKLEVIKQFRHPKYNTSTNHHDIMLLKLKEKASLTLAVGTLPFPSQFNFVPPGRMCRVAGWGRTGVLKPGSDTLQEVKLRLMDPQACSHYRRFDHNLQLCVGNPRKTKSAFKGDSGGPLLCAGVAQGIVSYGRTDAKPPRVFTRISHYRPWINQILQAN", "fB Cleavage EC50": 0.216, "fB Cleavage, 80% plasma EC50": 4.13}, {"binder": "chymase C22S/P38Q/K40M/F41R/L99M/F173Y/D175N/V213Q/S218V/A226R/F228A (enzyme) IIGGTESKPHSRPYMAYLEIVTSNGQSMRCGGFLIRRNFVLTAAHCAGRSITVTLGAHNITEEEDTWQKLEVIKQFRHPKYNTSTMHHDIMLLKLKEKASLTLAVGTLPFPSQFNFVPPGRMCRVAGWGRTGVLKPGSDTLQEVKLRLMDPQACSHYRNFDHNLQLCVGNPRKTKSAFKGDSGGPLLCAGVAQGIQSYGRVDAKPPRVATRISHYRPWINQILQAN", "fB Cleavage EC50": 0.787}, {"binder": "chymase C22S/K40L/F41K/L99H/F173Y/D175S/S218I/A226R (enzyme) IIGGTESKPHSRPYMAYLEIVTSNGPSLKCGGFLIRRNFVLTAAHCAGRSITVTLGAHNITEEEDTWQKLEVIKQFRHPKYNTSTHHHDIMLLKLKEKASLTLAVGTLPFPSQFNFVPPGRMCRVAGWGRTGVLKPGSDTLQEVKLRLMDPQACSHYRSFDHNLQLCVGNPRKTKSAFKGDSGGPLLCAGVAQGIVSYGRIDAKPPRVFTRISHYRPWINQILQAN", "fB Cleavage EC50": 0.101, "fB Cleavage, 80% plasma EC50": 4.62}, {"binder": "chymase C22S/P38Q/K40M/F41R/D175N/V213Q/S218V/A226R/F228A (enzyme) IIGGTESKPHSRPYMAYLEIVTSNGQSMRCGGFLIRRNFVLTAAHCAGRSITVTLGAHNITEEEDTWQKLEVIKQFRHPKYNTSTLHHDIMLLKLKEKASLTLAVGTLPFPSQFNFVPPGRMCRVAGWGRTGVLKPGSDTLQEVKLRLMDPQACSHFRNFDHNLQLCVGNPRKTKSAFKGDSGGPLLCAGVAQGIQSYGRVDAKPPRVATRISHYRPWINQILQAN", "fB Cleavage EC50": 0.931}, {"binder": "chymase C22S/P38Q/K40M/F41R/V138I/F173Y/D175R/A190S/V213A/S218V/A226R (enzyme) IIGGTESKPHSRPYMAYLEIVTSNGQSMRCGGFLIRRNFVLTAAHCAGRSITVTLGAHNITEEEDTWQKLEVIKQFRHPKYNTSTLHHDIMLLKLKEKASLTLAVGTLPFPSQFNFVPPGRMCRIAGWGRTGVLKPGSDTLQEVKLRLMDPQACSHYRRFDHNLQLCVGNPRKTKSSFKGDSGGPLLCAGVAQGIASYGRVDAKPPRVFTRISHYRPWINQILQAN", "EC50 (Factor B ELISA after digestion)": 0.0302, "fB Cleavage EC50": 0.0281}, {"binder": "chymase C22S/P38Q/K40M/F41R/L99N/V138I/F173Y/D175T/A190S/V213A/S218V/A226R (enzyme) IIGGTESKPHSRPYMAYLEIVTSNGQSMRCGGFLIRRNFVLTAAHCAGRSITVTLGAHNITEEEDTWQKLEVIKQFRHPKYNTSTNHHDIMLLKLKEKASLTLAVGTLPFPSQFNFVPPGRMCRIAGWGRTGVLKPGSDTLQEVKLRLMDPQACSHYRTFDHNLQLCVGNPRKTKSSFKGDSGGPLLCAGVAQGIASYGRVDAKPPRVFTRISHYRPWINQILQAN", "fB Cleavage EC50": 0.0921}, {"binder": "chymase C22S/P38Q/K40L/F41R/V138I/F173Y/D175N/A190S/V213A/S218V/A226R (enzyme) IIGGTESKPHSRPYMAYLEIVTSNGQSLRCGGFLIRRNFVLTAAHCAGRSITVTLGAHNITEEEDTWQKLEVIKQFRHPKYNTSTLHHDIMLLKLKEKASLTLAVGTLPFPSQFNFVPPGRMCRIAGWGRTGVLKPGSDTLQEVKLRLMDPQACSHYRNFDHNLQLCVGNPRKTKSSFKGDSGGPLLCAGVAQGIASYGRVDAKPPRVFTRISHYRPWINQILQAN", "EC50 (Factor B ELISA after digestion)": 0.0425, "fB Cleavage EC50": 0.0363}, {"binder": "chymase C22S/K40L/F41R/L99H/F173Y/D175Y/S218I/A226R (enzyme) IIGGTESKPHSRPYMAYLEIVTSNGPSLRCGGFLIRRNFVLTAAHCAGRSITVTLGAHNITEEEDTWQKLEVIKQFRHPKYNTSTHHHDIMLLKLKEKASLTLAVGTLPFPSQFNFVPPGRMCRVAGWGRTGVLKPGSDTLQEVKLRLMDPQACSHYRYFDHNLQLCVGNPRKTKSAFKGDSGGPLLCAGVAQGIVSYGRIDAKPPRVFTRISHYRPWINQILQAN", "fB Cleavage EC50": 0.084, "fB Cleavage, 80% plasma EC50": 5.56}, {"binder": "chymase C22S/K40L/F41R/L99G/F173Y/D175R/S218V/A226R (enzyme) IIGGTESKPHSRPYMAYLEIVTSNGPSLRCGGFLIRRNFVLTAAHCAGRSITVTLGAHNITEEEDTWQKLEVIKQFRHPKYNTSTGHHDIMLLKLKEKASLTLAVGTLPFPSQFNFVPPGRMCRVAGWGRTGVLKPGSDTLQEVKLRLMDPQACSHYRRFDHNLQLCVGNPRKTKSAFKGDSGGPLLCAGVAQGIVSYGRVDAKPPRVFTRISHYRPWINQILQAN", "fB Cleavage EC50": 0.333, "fB Cleavage, 80% plasma EC50": 8.62}, {"binder": "chymase C22S/P38Q/K40L/F41R/L99H/V138I/F173Y/D175S/A190S/V213A/S218I/A226R (enzyme) IIGGTESKPHSRPYMAYLEIVTSNGQSLRCGGFLIRRNFVLTAAHCAGRSITVTLGAHNITEEEDTWQKLEVIKQFRHPKYNTSTHHHDIMLLKLKEKASLTLAVGTLPFPSQFNFVPPGRMCRIAGWGRTGVLKPGSDTLQEVKLRLMDPQACSHYRSFDHNLQLCVGNPRKTKSSFKGDSGGPLLCAGVAQGIASYGRIDAKPPRVFTRISHYRPWINQILQAN", "fB Cleavage EC50": 0.0603}, {"binder": "chymase C22S/P38Q/V138I/A190S/V213A/A226R (enzyme) IIGGTESKPHSRPYMAYLEIVTSNGQSKFCGGFLIRRNFVLTAAHCAGRSITVTLGAHNITEEEDTWQKLEVIKQFRHPKYNTSTLHHDIMLLKLKEKASLTLAVGTLPFPSQFNFVPPGRMCRIAGWGRTGVLKPGSDTLQEVKLRLMDPQACSHFRDFDHNLQLCVGNPRKTKSSFKGDSGGPLLCAGVAQGIASYGRSDAKPPRVFTRISHYRPWINQILQAN", "fB Cleavage EC50": 1.35}]}]}
